Consider one substance from patent US20030044899A1.

This assay has as its target integrin α3β1 (human) (UniProt P26006). Kind of assay: cell-based or functional assay.
Chain of UniProt P26006 (P26006 33-1051, chain 1 of 2): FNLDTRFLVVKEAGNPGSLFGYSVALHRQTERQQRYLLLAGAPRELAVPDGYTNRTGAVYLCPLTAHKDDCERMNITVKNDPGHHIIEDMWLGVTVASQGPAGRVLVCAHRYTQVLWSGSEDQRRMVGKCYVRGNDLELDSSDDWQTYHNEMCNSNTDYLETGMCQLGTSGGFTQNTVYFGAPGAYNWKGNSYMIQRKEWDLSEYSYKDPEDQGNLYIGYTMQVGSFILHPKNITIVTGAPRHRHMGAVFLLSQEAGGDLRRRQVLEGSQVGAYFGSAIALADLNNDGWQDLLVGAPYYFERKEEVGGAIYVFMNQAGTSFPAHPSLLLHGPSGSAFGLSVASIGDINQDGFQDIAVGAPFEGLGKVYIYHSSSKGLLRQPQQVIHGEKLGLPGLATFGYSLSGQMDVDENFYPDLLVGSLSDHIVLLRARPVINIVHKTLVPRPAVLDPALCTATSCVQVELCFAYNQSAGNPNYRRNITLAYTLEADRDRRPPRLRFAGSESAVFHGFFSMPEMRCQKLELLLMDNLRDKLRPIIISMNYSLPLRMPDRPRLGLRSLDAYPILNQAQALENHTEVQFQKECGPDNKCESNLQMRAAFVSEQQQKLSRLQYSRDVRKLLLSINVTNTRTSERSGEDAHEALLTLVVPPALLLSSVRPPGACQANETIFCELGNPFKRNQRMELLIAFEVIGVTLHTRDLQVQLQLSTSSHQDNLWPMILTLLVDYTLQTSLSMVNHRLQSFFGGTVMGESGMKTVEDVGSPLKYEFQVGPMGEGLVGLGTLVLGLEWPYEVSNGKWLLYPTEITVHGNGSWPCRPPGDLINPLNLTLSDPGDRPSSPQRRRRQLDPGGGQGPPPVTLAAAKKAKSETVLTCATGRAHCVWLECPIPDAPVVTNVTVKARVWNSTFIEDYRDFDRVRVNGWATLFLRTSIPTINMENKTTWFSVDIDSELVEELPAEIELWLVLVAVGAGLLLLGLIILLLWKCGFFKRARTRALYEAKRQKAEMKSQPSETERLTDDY
Chain of UniProt P26006 (P05556 21-798, chain 2 of 2, further chain): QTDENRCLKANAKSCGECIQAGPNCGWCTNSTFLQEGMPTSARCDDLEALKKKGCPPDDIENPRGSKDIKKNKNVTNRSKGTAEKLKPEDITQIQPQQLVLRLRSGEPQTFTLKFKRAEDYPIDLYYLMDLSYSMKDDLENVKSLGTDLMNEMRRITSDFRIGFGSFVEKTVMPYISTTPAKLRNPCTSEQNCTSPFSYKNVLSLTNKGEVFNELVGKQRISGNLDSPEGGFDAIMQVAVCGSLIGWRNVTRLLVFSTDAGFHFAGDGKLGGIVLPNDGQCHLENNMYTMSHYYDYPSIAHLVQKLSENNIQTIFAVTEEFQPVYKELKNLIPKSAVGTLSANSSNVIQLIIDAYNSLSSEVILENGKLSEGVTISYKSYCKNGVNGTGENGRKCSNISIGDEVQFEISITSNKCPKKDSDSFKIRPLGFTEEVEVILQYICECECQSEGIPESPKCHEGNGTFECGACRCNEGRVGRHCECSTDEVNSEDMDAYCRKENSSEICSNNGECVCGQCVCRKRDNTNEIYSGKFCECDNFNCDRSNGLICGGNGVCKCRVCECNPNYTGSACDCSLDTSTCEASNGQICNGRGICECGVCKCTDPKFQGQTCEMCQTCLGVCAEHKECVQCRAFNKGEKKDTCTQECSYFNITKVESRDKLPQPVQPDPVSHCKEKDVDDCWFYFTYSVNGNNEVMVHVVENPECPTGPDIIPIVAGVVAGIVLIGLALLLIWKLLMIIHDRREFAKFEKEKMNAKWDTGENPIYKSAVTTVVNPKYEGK

“recombinant laminin-10 (human α5β1γ1 heterotrimer, α5 chain with C-terminal FLAG epitope) (from UniProt P07942 22-1786; P11047 34-1609) (ligand)”: the inhibition of HT-1080 cell binding to r-laminin-10 by mAbs against either α3 or β1 came to 80%.
